Test results published in article PMC11334520, “In vitro higher-order oligomeric assembly of the respiratory syncytial virus M2-1 protein with longer RNAs”.

Key:
Conditions in all cases: protein: recombinant; tags: N-terminal His6-GFP, cleaved with TEV; chain copies: 4
[1] = target: T1, M2-1 (human respiratory syncytial virus …, UniProt P04545 1-194); experiment: EMSA; 0.5 uM RNA; Hill 5.17; EMSA: 20 mM HEPES pH 7.5, 200 mM NaCl, 2 mM TCEP, 5% glycerol, room temperature 1 h, 4% native PAGE, SYBR Gold; SEC: Superdex 200 Increase 10/300, buffer not given
T1 sequence: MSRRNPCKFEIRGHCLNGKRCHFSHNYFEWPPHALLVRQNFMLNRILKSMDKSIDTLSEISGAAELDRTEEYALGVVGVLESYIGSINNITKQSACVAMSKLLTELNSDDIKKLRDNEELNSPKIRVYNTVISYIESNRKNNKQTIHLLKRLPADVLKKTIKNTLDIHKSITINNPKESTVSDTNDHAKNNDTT

[2] = target: T1, M2-1; experiment: EMSA; 0.5 uM RNA; Hill 0.95; EMSA: 20 mM HEPES pH 7.5, 200 mM NaCl, 2 mM TCEP, 5% glycerol, room temperature 1 h, 4% native PAGE, SYBR Gold; SEC: Superdex 200 Increase 10/300, buffer not given
[3] = target: T1, M2-1; experiment: EMSA; 0.5 uM RNA; Hill 8.10; EMSA: 20 mM HEPES pH 7.5, 200 mM NaCl, 2 mM TCEP, 5% glycerol, room temperature 1 h, 4% native PAGE, SYBR Gold; SEC: Superdex 200 Increase 10/300, buffer not given
[4] = target: T1, M2-1; experiment: SEC; excess RNA; EMSA: 20 mM HEPES pH 7.5, 200 mM NaCl, 2 mM TCEP, 5% glycerol, room temperature 1 h, 4% native PAGE, SYBR Gold; SEC: Superdex 200 Increase 10/300, buffer not given
[5] = target: T1, M2-1; experiment: EMSA; 0.5 uM RNA; Hill 0.83; EMSA: 20 mM HEPES pH 7.5, 200 mM NaCl, 2 mM TCEP, 5% glycerol, room temperature 1 h, 4% native PAGE, SYBR Gold; SEC: Superdex 200 Increase 10/300, buffer not given

In the case of AAAAAAAAAAAAAAAAAAA (ssRNA) [Poly19A], the Kd [1] is reported as 2.72 µM.

AAAAAAAAAAAAAA (ssRNA) [Poly14A] showed a Kd [2] of 0.58 µM.

AAAAAAAAAAAAAAAAAAAAAAAA (ssRNA) [Poly24A] showed a Kd [3] of 4.44 µM.

CCCCCCCCCCCCCCCC (ssRNA) [Poly16C]: no binding [4].

AAAAAAAAAAAAAAAA (ssRNA) [Poly16A]: binds [4].

UUUUUUUUUUUUUUUUUUUUUUUUUUUU (ssRNA) [Poly28U]: binds [4].

UUUUUUUUUUUUUUUUUUUUU (ssRNA) [Poly21U]: binds [4].

CUAUUUUUAAUUAACU (ssRNA) [SH16(-)]: no binding [4].

AAAAAAAAA (ssRNA) [Poly9A] was tested, and the Kd [5] was 1.94 µM.

UUUUUUUUUUUUUUUU (ssRNA) [Poly16U]: no binding [4].

AGUUAAUUAAAAAUAG (ssRNA) [SH16(+)]: binds [4].
